# Test results published in US20200173986A1.
# Experiments:
# [1] = molecular target: endogenous SNAP25 in total cell lysate; test: sandwich ELISA with total cell lysate, negative control
# [2] = molecular target: endogenous SNAP25 in total cell lysate; test: as above; remark: listed apart in the source
# [3] = molecular target: endogenous SNAP25 in total cell lysate; test: as above; remark: listed apart in the source
# [4] = molecular target: endogenous SNAP25 in total cell lysate; test: sandwich ELISA with total cell lysate, positive control
# [5] = molecular target: endogenous SNAP25 in total cell lysate; test: as above; remark: listed apart in the source
# [6] = molecular target: endogenous SNAP25 in total cell lysate; test: as above; remark: listed apart in the source
# Chain of endogenous SNAP25 in total cell lysate (P60879 whole entry): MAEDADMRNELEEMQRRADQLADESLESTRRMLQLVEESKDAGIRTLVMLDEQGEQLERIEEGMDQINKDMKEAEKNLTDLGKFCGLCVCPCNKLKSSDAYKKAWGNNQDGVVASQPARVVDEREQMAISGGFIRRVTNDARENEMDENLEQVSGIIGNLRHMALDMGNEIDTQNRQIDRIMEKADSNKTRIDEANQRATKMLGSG
Substance,ELISA signal (A450) [1],ELISA signal (A450) [2],ELISA signal (A450) [3],ELISA signal (A450) [4],ELISA signal (A450) [5],ELISA signal (A450) [6]
NC,0.125,0.213,0.27,,,
PC,,,,2.5,2.77,3.49
